Results published in patent US20220267400.

Experiments:
[1] = target: T1, Construct A (mIL2- 2x(SG4) - MMPcs1 - 2x(G4S) - IL2Ralpha - 6His)
T1 chain: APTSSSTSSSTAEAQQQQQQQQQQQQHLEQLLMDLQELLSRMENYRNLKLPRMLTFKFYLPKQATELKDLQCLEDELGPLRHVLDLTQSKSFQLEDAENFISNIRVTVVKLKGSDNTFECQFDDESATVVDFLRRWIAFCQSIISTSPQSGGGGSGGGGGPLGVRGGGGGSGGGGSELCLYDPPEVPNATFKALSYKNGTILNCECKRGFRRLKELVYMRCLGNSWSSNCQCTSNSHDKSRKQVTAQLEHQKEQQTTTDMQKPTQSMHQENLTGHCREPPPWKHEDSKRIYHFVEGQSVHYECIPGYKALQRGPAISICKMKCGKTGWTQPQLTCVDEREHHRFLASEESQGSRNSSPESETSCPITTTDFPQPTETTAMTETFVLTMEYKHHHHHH

[2] = target: T2, Construct B (m IL2-2x(SG4) - MMPcs1 - 2x (G4S) - IL2Ralpha - mIgG1 Fc)
T2 chain: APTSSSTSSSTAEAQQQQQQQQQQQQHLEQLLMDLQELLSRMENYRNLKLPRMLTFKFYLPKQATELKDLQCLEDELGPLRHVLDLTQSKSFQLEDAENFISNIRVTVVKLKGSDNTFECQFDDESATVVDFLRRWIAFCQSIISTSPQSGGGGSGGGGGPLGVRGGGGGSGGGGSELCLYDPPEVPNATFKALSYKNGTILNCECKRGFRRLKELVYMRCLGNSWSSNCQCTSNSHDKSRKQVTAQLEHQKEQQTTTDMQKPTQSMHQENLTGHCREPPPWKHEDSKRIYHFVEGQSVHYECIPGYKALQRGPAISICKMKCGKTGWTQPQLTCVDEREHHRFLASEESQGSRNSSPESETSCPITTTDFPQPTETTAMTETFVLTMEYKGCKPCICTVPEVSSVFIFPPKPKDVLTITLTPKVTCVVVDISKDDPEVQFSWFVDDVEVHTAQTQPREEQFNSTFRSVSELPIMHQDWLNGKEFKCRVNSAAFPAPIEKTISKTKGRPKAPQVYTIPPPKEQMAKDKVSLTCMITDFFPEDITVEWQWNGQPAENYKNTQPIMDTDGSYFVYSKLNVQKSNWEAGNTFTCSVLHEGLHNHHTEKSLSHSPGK

[3] = target: Construct E (Hu IL2(C125S)- 2x(SG4) - MMPcs1 - 2x(G4S) - IL2Ralpha - hu IgG1 Fc - 6xHIS)
Chain of Construct E (Hu IL2(C125S)- 2x(SG4) - MMPcs1 - 2x(G4S) - IL2Ralpha - hu IgG1 Fc - 6xHIS) (chain, as listed by the source C125S): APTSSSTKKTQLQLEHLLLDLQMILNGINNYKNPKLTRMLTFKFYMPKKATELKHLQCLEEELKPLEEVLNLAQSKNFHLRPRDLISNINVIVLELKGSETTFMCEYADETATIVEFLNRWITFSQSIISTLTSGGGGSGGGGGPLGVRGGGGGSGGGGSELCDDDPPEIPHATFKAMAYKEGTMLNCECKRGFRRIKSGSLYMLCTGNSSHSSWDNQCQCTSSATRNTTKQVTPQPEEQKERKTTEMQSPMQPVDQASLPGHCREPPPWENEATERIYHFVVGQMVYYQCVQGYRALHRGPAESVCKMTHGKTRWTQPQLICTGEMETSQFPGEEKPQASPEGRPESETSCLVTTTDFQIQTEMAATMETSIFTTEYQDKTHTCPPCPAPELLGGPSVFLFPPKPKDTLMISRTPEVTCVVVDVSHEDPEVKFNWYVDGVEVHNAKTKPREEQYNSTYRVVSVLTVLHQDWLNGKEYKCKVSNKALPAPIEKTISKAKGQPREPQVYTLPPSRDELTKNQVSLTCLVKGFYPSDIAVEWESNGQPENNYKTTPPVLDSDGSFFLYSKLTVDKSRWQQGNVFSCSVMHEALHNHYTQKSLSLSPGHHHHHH

B1: Recombinant MMP9 (R&D Systems), activated with p-aminophenylmercuric acetate (protein)
chain: FQTFKGLKWDHHNITYWIQNYSEDLPRDMIDDAFARAFAVWGEVAPLTFTRVYGPEADIVIQFGVAEHGDGYPFDGKDGLLAHAFPPGAGVQGDAHFDDDELWSLGKGVVIPTYYGNSNGAPCHFPFTFEGRSYSACTTDGRNDGTPWCSTTADYDKDGKFGFCPSERLYTEHGNGEGKPCVFPFIFEGRSYSACTTKGRSDGYRWCATTANYDQDKLYGFCPTRVDATVVGGNSAGELCVFPFVFLGKQYSSCTSDGRRDGRLWCATTSNFDTDKKWGFCPDQGYSLFLVAAHEFGHALGLDHSSVPEALMYPLYSYLEGFPLNKDDIDGIQYLYGRGSKPDPRPPATTTTEPQPTAPPTMCPTIPPTAYPTVGPTVGPTGAPSPGPTSSPSPGPTGAPSPGPTAPPTAGSSEASTESLSPADNPCNVDVFDAIAEIQGALHFFKDGWYWKFLNHRGSPLQGPFLTARTWPALPATLDSAFEDPQTKRVFFFSGRQMWVYTGKTVLGPRSLDKLGLGPEVTHVSGLLPRRLGKALLFSKGRVWRFDLKSQKVDPQSVIRVDKEFSGVPWNSHDIFQYQDKAYFCHGKFFWRVSFQNEVNKVDHEVNQVDDVGYVTYDLLQCP
[1]
  cleavage of the fusion protein, SDS-PAGE and Western blot: essentially complete cleavage of the fusion proteins by MMP9 protease was seen after overnight incubation
  cleavage of the fusion protein, Western blot: Cleavage product was detectable at 1 hour, and the full-length cytokine prodrug was substantially undetectable at the overnight +MMP time point
[2]
  cleavage of the fusion protein, SDS-PAGE and Western blot: essentially complete cleavage of the fusion proteins by MMP9 protease was seen after overnight incubation
  cleavage of the fusion protein, Western blot: Cleavage product was detectable at 1 hour, and the full-length cytokine prodrug gave only a faint band at the 20 hour +MMP time point
[3]
  cleavage of the fusion protein, SDS-PAGE and Western blot: essentially complete cleavage of the fusion proteins by MMP9 protease was seen after overnight incubation
  cleavage of the fusion protein, Western blot: Cleavage product was detectable at 1 hour, and the full-length cytokine prodrug gave essentially no band at the 22 hour +MMP time point
